Each block holds one binder with its values, some of them ahead of it. Numbered stars: 1 amine (or outer) side, 2 acyl side, 3 side chain; on linkers, the order of the positions; unused ones are H or OH. * marks the point of attachment. C20 diacid = O=C(O)CCCCCCCCCCCCCCCCCCC(=O)*; γGlu = O=C(O)[C@H](CCC(=O)[*:2])N[*:1]; AEEA = NCCOCCOCC(=O)O
How the values were obtained:
[1] = target: T1, human amylin 3(a) receptor (human calcitonin receptor co-expressed with RAMP-3) on BHK570/CRE-luc cells (human, UniProt P30988 25-474; O60896 24-148); assay: cell-based or functional assay
T1 sequence (looked up) 1: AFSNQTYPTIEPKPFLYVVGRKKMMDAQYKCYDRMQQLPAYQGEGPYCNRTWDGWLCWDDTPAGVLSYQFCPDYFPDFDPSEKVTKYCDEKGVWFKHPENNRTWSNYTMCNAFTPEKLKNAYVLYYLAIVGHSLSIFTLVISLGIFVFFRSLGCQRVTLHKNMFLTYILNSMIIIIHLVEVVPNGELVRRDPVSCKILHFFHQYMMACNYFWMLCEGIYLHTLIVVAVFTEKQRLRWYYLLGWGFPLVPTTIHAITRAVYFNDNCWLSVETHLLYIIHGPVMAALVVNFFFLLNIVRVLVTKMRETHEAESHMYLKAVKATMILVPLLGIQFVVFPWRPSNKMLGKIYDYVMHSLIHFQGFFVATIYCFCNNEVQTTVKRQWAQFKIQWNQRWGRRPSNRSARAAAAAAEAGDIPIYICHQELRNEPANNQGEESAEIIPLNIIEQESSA
T1 sequence (looked up) 2: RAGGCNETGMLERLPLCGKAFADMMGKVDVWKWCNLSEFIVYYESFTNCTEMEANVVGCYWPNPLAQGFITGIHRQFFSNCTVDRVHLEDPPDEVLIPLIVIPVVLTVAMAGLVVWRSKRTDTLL

[2] = target: T2, human calcitonin receptor on BHK570/CRE-luc cells (human, UniProt P30988 25-474); assay: cell-based or functional assay
T2 sequence (looked up): T1 sequence (looked up) 1

hAmylin-R funct. EC50 (pM), tested with HSA [1]: 86 pM | hCTR funct. EC50 (pM), tested with HSA [2]: 61 pM
B1: [N-terminal(C20 diacid-gGlu), des1, 4G, 9V, 15Q, 21Q, 23Y, 30S, 31Q, 32T, 33Y]mimylin (peptide)
peptide: {C20 diacid-γGlu}-ASGLSTAVLGRLSQELHELQTYPRTETGSQTY-NH2
SMILES: CC(C)C[C@H](NC(=O)CNC(=O)[C@H](CO)NC(=O)[C@H](C)NC(=O)CC[C@H](NC(=O)CCCCCCCCCCCCCCCCCCC(=O)O)C(=O)O)C(=O)N[C@@H](CO)C(=O)N[C@H](C(=O)N[C@@H](C)C(=O)N[C@H](C(=O)N[C@@H](CC(C)C)C(=O)NCC(=O)N[C@@H](CCCNC(=N)N)C(=O)N[C@@H](CC(C)C)C(=O)N[C@@H](CO)C(=O)N[C@@H](CCC(N)=O)C(=O)N[C@@H](CCC(=O)O)C(=O)N[C@@H](CC(C)C)C(=O)N[C@@H](Cc1c[nH]cn1)C(=O)N[C@@H](CCC(=O)O)C(=O)N[C@@H](CC(C)C)C(=O)N[C@@H](CCC(N)=O)C(=O)N[C@H](C(=O)N[C@@H](Cc1ccc(O)cc1)C(=O)N1CCC[C@H]1C(=O)N[C@@H](CCCNC(=N)N)C(=O)N[C@H](C(=O)N[C@@H](CCC(=O)O)C(=O)N[C@H](C(=O)NCC(=O)N[C@@H](CO)C(=O)N[C@@H](CCC(N)=O)C(=O)N[C@H](C(=O)N[C@@H](Cc1ccc(O)cc1)C(N)=O)[C@@H](C)O)[C@@H](C)O)[C@@H](C)O)[C@@H](C)O)C(C)C)[C@@H](C)O

hAmylin-R funct. EC50 (pM), tested with HSA [1]: 105 pM | hCTR funct. EC50 (pM), tested with HSA [2]: 54 pM
B2: [N-terminal(C20 diacid-gGlu), des1, 4G, 9V, 15Q, 21Q, 23Y, 30S, 31G, 32T, 33Y]mimylin (peptide)
peptide: {C20 diacid-γGlu}-ASGLSTAVLGRLSQELHELQTYPRTETGSGTY-NH2
SMILES: CC(C)C[C@H](NC(=O)CNC(=O)[C@H](CO)NC(=O)[C@H](C)NC(=O)CC[C@H](NC(=O)CCCCCCCCCCCCCCCCCCC(=O)O)C(=O)O)C(=O)N[C@@H](CO)C(=O)N[C@H](C(=O)N[C@@H](C)C(=O)N[C@H](C(=O)N[C@@H](CC(C)C)C(=O)NCC(=O)N[C@@H](CCCNC(=N)N)C(=O)N[C@@H](CC(C)C)C(=O)N[C@@H](CO)C(=O)N[C@@H](CCC(N)=O)C(=O)N[C@@H](CCC(=O)O)C(=O)N[C@@H](CC(C)C)C(=O)N[C@@H](Cc1c[nH]cn1)C(=O)N[C@@H](CCC(=O)O)C(=O)N[C@@H](CC(C)C)C(=O)N[C@@H](CCC(N)=O)C(=O)N[C@H](C(=O)N[C@@H](Cc1ccc(O)cc1)C(=O)N1CCC[C@H]1C(=O)N[C@@H](CCCNC(=N)N)C(=O)N[C@H](C(=O)N[C@@H](CCC(=O)O)C(=O)N[C@H](C(=O)NCC(=O)N[C@@H](CO)C(=O)NCC(=O)N[C@H](C(=O)N[C@@H](Cc1ccc(O)cc1)C(N)=O)[C@@H](C)O)[C@@H](C)O)[C@@H](C)O)[C@@H](C)O)C(C)C)[C@@H](C)O

hAmylin-R funct. EC50 (pM), tested with HSA [1]: 212 pM | hCTR funct. EC50 (pM), tested with HSA [2]: 99 pM
B3: [N-terminal(C20 diacid-gGlu), des1, 4G, 15Q, 21Q, 23Y, 25H, 30S, 31G, 32T, 33Y]mimylin (peptide)
peptide: {C20 diacid-γGlu}-ASGLSTAALGRLSQELHELQTYPHTETGSGTY-NH2
SMILES: CC(C)C[C@H](NC(=O)CNC(=O)[C@H](CO)NC(=O)[C@H](C)NC(=O)CC[C@H](NC(=O)CCCCCCCCCCCCCCCCCCC(=O)O)C(=O)O)C(=O)N[C@@H](CO)C(=O)N[C@H](C(=O)N[C@@H](C)C(=O)N[C@@H](C)C(=O)N[C@@H](CC(C)C)C(=O)NCC(=O)N[C@@H](CCCNC(=N)N)C(=O)N[C@@H](CC(C)C)C(=O)N[C@@H](CO)C(=O)N[C@@H](CCC(N)=O)C(=O)N[C@@H](CCC(=O)O)C(=O)N[C@@H](CC(C)C)C(=O)N[C@@H](Cc1c[nH]cn1)C(=O)N[C@@H](CCC(=O)O)C(=O)N[C@@H](CC(C)C)C(=O)N[C@@H](CCC(N)=O)C(=O)N[C@H](C(=O)N[C@@H](Cc1ccc(O)cc1)C(=O)N1CCC[C@H]1C(=O)N[C@@H](Cc1c[nH]cn1)C(=O)N[C@H](C(=O)N[C@@H](CCC(=O)O)C(=O)N[C@H](C(=O)NCC(=O)N[C@@H](CO)C(=O)NCC(=O)N[C@H](C(=O)N[C@@H](Cc1ccc(O)cc1)C(N)=O)[C@@H](C)O)[C@@H](C)O)[C@@H](C)O)[C@@H](C)O)[C@@H](C)O

hAmylin-R funct. EC50 (pM), tested with HSA [1]: 67 pM | hCTR funct. EC50 (pM), tested with HSA [2]: 36 pM
B4: [N-terminal(C20 diacid-gGlu), des1, 4Q, 9V, 15Q, 21Q, 23Y, 30S, 31Q, 32T, 33Y]mimylin (peptide)
peptide: {C20 diacid-γGlu}-ASQLSTAVLGRLSQELHELQTYPRTETGSQTY-NH2
SMILES: CC(C)C[C@H](NC(=O)[C@H](CCCNC(=N)N)NC(=O)CNC(=O)[C@H](CC(C)C)NC(=O)[C@@H](NC(=O)[C@H](C)NC(=O)[C@@H](NC(=O)[C@H](CO)NC(=O)[C@H](CC(C)C)NC(=O)[C@H](CCC(N)=O)NC(=O)[C@H](CO)NC(=O)[C@H](C)NC(=O)CC[C@H](NC(=O)CCCCCCCCCCCCCCCCCCC(=O)O)C(=O)O)[C@@H](C)O)C(C)C)C(=O)N[C@@H](CO)C(=O)N[C@@H](CCC(N)=O)C(=O)N[C@@H](CCC(=O)O)C(=O)N[C@@H](CC(C)C)C(=O)N[C@@H](Cc1c[nH]cn1)C(=O)N[C@@H](CCC(=O)O)C(=O)N[C@@H](CC(C)C)C(=O)N[C@@H](CCC(N)=O)C(=O)N[C@H](C(=O)N[C@@H](Cc1ccc(O)cc1)C(=O)N1CCC[C@H]1C(=O)N[C@@H](CCCNC(=N)N)C(=O)N[C@H](C(=O)N[C@@H](CCC(=O)O)C(=O)N[C@H](C(=O)NCC(=O)N[C@@H](CO)C(=O)N[C@@H](CCC(N)=O)C(=O)N[C@H](C(=O)N[C@@H](Cc1ccc(O)cc1)C(N)=O)[C@@H](C)O)[C@@H](C)O)[C@@H](C)O)[C@@H](C)O

hAmylin-R funct. EC50 (pM), tested with HSA [1]: 142 pM | hCTR funct. EC50 (pM), tested with HSA [2]: 97 pM
B5: [N-terminal(C20 diacid-gGlu), des1, 9V, 15Q, 21Q, 23Y, 30S, 31G, 32T, 33Y]mimylin (peptide)
peptide: {C20 diacid-γGlu}-ASELSTAVLGRLSQELHELQTYPRTETGSGTY-NH2
SMILES: CC(C)C[C@H](NC(=O)[C@H](CCCNC(=N)N)NC(=O)CNC(=O)[C@H](CC(C)C)NC(=O)[C@@H](NC(=O)[C@H](C)NC(=O)[C@@H](NC(=O)[C@H](CO)NC(=O)[C@H](CC(C)C)NC(=O)[C@H](CCC(=O)O)NC(=O)[C@H](CO)NC(=O)[C@H](C)NC(=O)CC[C@H](NC(=O)CCCCCCCCCCCCCCCCCCC(=O)O)C(=O)O)[C@@H](C)O)C(C)C)C(=O)N[C@@H](CO)C(=O)N[C@@H](CCC(N)=O)C(=O)N[C@@H](CCC(=O)O)C(=O)N[C@@H](CC(C)C)C(=O)N[C@@H](Cc1c[nH]cn1)C(=O)N[C@@H](CCC(=O)O)C(=O)N[C@@H](CC(C)C)C(=O)N[C@@H](CCC(N)=O)C(=O)N[C@H](C(=O)N[C@@H](Cc1ccc(O)cc1)C(=O)N1CCC[C@H]1C(=O)N[C@@H](CCCNC(=N)N)C(=O)N[C@H](C(=O)N[C@@H](CCC(=O)O)C(=O)N[C@H](C(=O)NCC(=O)N[C@@H](CO)C(=O)NCC(=O)N[C@H](C(=O)N[C@@H](Cc1ccc(O)cc1)C(N)=O)[C@@H](C)O)[C@@H](C)O)[C@@H](C)O)[C@@H](C)O

hAmylin-R funct. EC50 (pM), tested with HSA [1]: 546 pM | hCTR funct. EC50 (pM), tested with HSA [2]: 366 pM
B6: [N-terminal(C20 diacid-gGlu), 4Q, 9V, 15Q, 21Q, 23Y, 27G, 30S, 31G, 32T, 33Y]mimylin (peptide)
peptide: {C20 diacid-γGlu}-EASQLSTAVLGRLSQELHELQTYPRTGTGSGTY-NH2
SMILES: CC(C)C[C@H](NC(=O)[C@H](CCCNC(=N)N)NC(=O)CNC(=O)[C@H](CC(C)C)NC(=O)[C@@H](NC(=O)[C@H](C)NC(=O)[C@@H](NC(=O)[C@H](CO)NC(=O)[C@H](CC(C)C)NC(=O)[C@H](CCC(N)=O)NC(=O)[C@H](CO)NC(=O)[C@H](C)NC(=O)[C@H](CCC(=O)O)NC(=O)CC[C@H](NC(=O)CCCCCCCCCCCCCCCCCCC(=O)O)C(=O)O)[C@@H](C)O)C(C)C)C(=O)N[C@@H](CO)C(=O)N[C@@H](CCC(N)=O)C(=O)N[C@@H](CCC(=O)O)C(=O)N[C@@H](CC(C)C)C(=O)N[C@@H](Cc1c[nH]cn1)C(=O)N[C@@H](CCC(=O)O)C(=O)N[C@@H](CC(C)C)C(=O)N[C@@H](CCC(N)=O)C(=O)N[C@H](C(=O)N[C@@H](Cc1ccc(O)cc1)C(=O)N1CCC[C@H]1C(=O)N[C@@H](CCCNC(=N)N)C(=O)N[C@H](C(=O)NCC(=O)N[C@H](C(=O)NCC(=O)N[C@@H](CO)C(=O)NCC(=O)N[C@H](C(=O)N[C@@H](Cc1ccc(O)cc1)C(N)=O)[C@@H](C)O)[C@@H](C)O)[C@@H](C)O)[C@@H](C)O

hAmylin-R funct. EC50 (pM), tested with HSA [1]: 123 pM | hCTR funct. EC50 (pM), tested with HSA [2]: 68 pM
B7: [N-terminal(C20 diacid-gGlu-2xOEG), des1, 4G, 9V, 15Q, 21Q, 23Y, 30S, 31G, 32T, 33Y]mimylin (peptide)
peptide: {C20 diacid-γGlu-AEEA-AEEA}-ASGLSTAVLGRLSQELHELQTYPRTETGSGTY-NH2
SMILES: CC(C)C[C@H](NC(=O)CNC(=O)[C@H](CO)NC(=O)[C@H](C)NC(=O)COCCOCCNC(=O)COCCOCCNC(=O)CC[C@H](NC(=O)CCCCCCCCCCCCCCCCCCC(=O)O)C(=O)O)C(=O)N[C@@H](CO)C(=O)N[C@H](C(=O)N[C@@H](C)C(=O)N[C@H](C(=O)N[C@@H](CC(C)C)C(=O)NCC(=O)N[C@@H](CCCNC(=N)N)C(=O)N[C@@H](CC(C)C)C(=O)N[C@@H](CO)C(=O)N[C@@H](CCC(N)=O)C(=O)N[C@@H](CCC(=O)O)C(=O)N[C@@H](CC(C)C)C(=O)N[C@@H](Cc1c[nH]cn1)C(=O)N[C@@H](CCC(=O)O)C(=O)N[C@@H](CC(C)C)C(=O)N[C@@H](CCC(N)=O)C(=O)N[C@H](C(=O)N[C@@H](Cc1ccc(O)cc1)C(=O)N1CCC[C@H]1C(=O)N[C@@H](CCCNC(=N)N)C(=O)N[C@H](C(=O)N[C@@H](CCC(=O)O)C(=O)N[C@H](C(=O)NCC(=O)N[C@@H](CO)C(=O)NCC(=O)N[C@H](C(=O)N[C@@H](Cc1ccc(O)cc1)C(N)=O)[C@@H](C)O)[C@@H](C)O)[C@@H](C)O)[C@@H](C)O)C(C)C)[C@@H](C)O

Reference: patent US20160272683A1 (Novo Nordisk, published 2016)
